Test [1] has as its target CXCL8 receptors on bovine peripheral blood neutrophils. Briefly: competition with 20 pM 125I-CXCL8 on 10^6 bovine neutrophils, 45 min on ice.
Test [2] shares this target. The test can be described thus: biotCXCL8 binding inhibition on bovine neutrophils; 10 ng/ml unlabeled CXCL8 2 h at 4 C, wash, then 1 ug/ml biotCXCL8; ELISA read-out. In general terms: In an ELISA, binding on a coated surface is turned into a signal by an enzyme label.
Test [3] shares this target. Briefly: preliminary radioligand binding on bovine neutrophils.
For test [4] the target is unchanged. The test can be described thus: biotCXCL8 (1000 ng/ml) on medium-treated bovine neutrophils; alkaline phosphatase-streptavidin and ABTS.
For test [5] the target is unchanged. The test can be described thus: cell-based or functional assay.
Test [6] shares this target. Briefly: competition with 20 pM 125I-CXCL8 on bovine neutrophils; reference wildtype CXCL8.
For test [7] the target is unchanged. Briefly: biotCXCL8 binding inhibition on bovine neutrophils; 10 ng/ml analogue 2 h at 4 C, wash, then 1 ug/ml biotCXCL8; ELISA read-out.

Several values for one entry are separate records, joined by “and”; a condition that tells them apart may be missing. Identical values can stand only once.

One may read the IC50 as the concentration that gives 50% inhibition. In turn, “CXCL8 (wild type, unlabeled) (from UniProt P79255 23-101) (ligand)” showed an IC50 in test [1] of 0.12 nM. For the same molecule, in test [2], the percent of biotCXCL8 binding inhibited came out at 30%.
The molecule “125I-CXCL8 (from UniProt P79255 23-101) (ligand)” displayed a concentration that just saturated the high affinity receptors in test [3] of 20 pM.
In turn, “biotinylated CXCL8 (from UniProt P79255 23-101) (ligand)” gave an OD405 in test [4] of 0.5 to 0.6 OD405.

B1: bovine CXCL8(3-74)K11R/G31P (ligand)
chain: TELRCQCIRTHSTPFHPKFIKELRVIESPPHCENSEIIVKLTNGNEVCLNPKEKWVQKVVQVFVKRAEKQDP
Turning to B1, in test [5], the IC50, inhibition of bovine neutrophil chemotaxis to 1 ug/ml (129 nM) CXCL8 was found to be 0.11 nM; the concentration for complete blocking of bovine neutrophil chemotaxis to 1 ug/ml CXCL8 is 10 nM; the concentration for complete inhibition of bovine neutrophil chemotaxis to human CXCL5, CXCL1 or CXCL8 was 3 nM and 20 nM; the concentration reducing by 50% the bovine neutrophil chemotactic response to 10 ng/ml human CXCL8 turned out to be 0.04 nM. In addition, in test [5], the concentration reducing to 50% the bovine neutrophil chemotactic response to 1 ng/ml human CXCL1 was determined as 0.26 nM, the concentration reducing to 50% the bovine neutrophil chemotactic response to 1 ng/ml human CXCL5 turned out to be 0.06 nM and the reduction of the chemotactic response of bovine neutrophils to 1 ug/ml (129 nM) CXCL8 by 12.9 pM analogue was 33%. In test [1], this molecule registered a concentration for half-maximal inhibition (IC50) of 0.004 nM. The same molecule displayed a fold more effective than wildtype CXCL8 in inhibiting 125I-CXCL8 binding in test [6] of 100 fold. Further, the percent of subsequent biotCXCL8 binding blocked in test [7] is 95%.

B2: bovine CXCL8(3-74)K11R/P32G (ligand)
chain: TELRCQCIRTHSTPFHPKFIKELRVIESGGHCENSEIIVKLTNGNEVCLNPKEKWVQKVVQVFVKRAEKQDP
As to B2, the percent of CXCL8 binding blocked in test [7] is 48%.

Source of the values: US20070021593A1.
